From patent publication US8663616B2, “Enzymatic peracid generation for use in oral care products” (E I du Pont de Nemours and Company, priority 2010, dated 2014)

Key:
[1] = T. maritima C277S/C277T constructs, peracetic acid when bound to bovine enamel (Example 11); format: biochemical; conditions: bovine enamel exposed to 10 μM enzyme, 4 washes; 100 mM triacetin, 100 mM H2O2, 30 min, 37° C.; no enzyme 570
Experimental: (§1) The detection of peracetic acid followed the method described in Pinkernell et. al. (Analyst, 1997, 122, 567) using colorimetric detection of 2,2′-azino-bis(3-ethylbenzothiazoline(-6-sulfonate (ABTS) oxidation by peracetic acid. Following the formation of peracetic acid with the addition of triacetin and hydrogen peroxide, 90 μL of solution was added to 10 μL of 0.1 M H3PO4 in a well plate. 50 μL of 1 M acetic acid, 50 μL of 0.5 g/L ABTS and 50 μL of 0.002 g/L of KI was added. The solution was allowed to develop for 5 min. The absorbance of the solution was measured at 405 nm using a microplate reader. The peracetic acid concentration was calculated based on a standard curve developed simultaneously using peracetic acid reagent solution.
The perhydrolase enzymes were also assessed for binding to bovine enamel substrates. Enamel substrates were prepared as described in Example 2 and 3. Each enamel block was hydrated in water for overnight at room temperature (˜22° C.). The enamel blocks were then equilibrated with 10 mM potassium phosphate buffer, pH7.2, for 10 min. The enamel substrates were rinsed 3 times the buffer. The enamel wells were filled with 500 μL of 10 μM enzyme solutions which was prepared by diluting in 10 mM phosphate buffer. The samples were incubated for 30 min with slow shaking at 37° C. The non-binding enzyme was removed by washing 4 times with phosphate buffer. Then, each enamel block was embedded inside a putty filled 24-well plate, with only the enamel top surface exposed. The perhydrolase activity from enamel bound enzyme was measured as described in Example 8. 100 μL reaction mixtures (100 mM phosphate buffer, pH7.2 and 100 mM H2O2 and 100 mM triacetin) was added on top of the enamel and incubated for 30 min at 37° C. A 90 μL aliquot was removed for detection via ABTS oxidation as noted in Example 8. Each sample data point represents an average of 3 independent enamel blocks.

[2] = Two-step bleaching of coffee-tea stained bovine enamel (Example 16); conditions: for Whiteness Index 0 min: two-step: 10 μM enzyme 60 min, rinsed, then 40 mM triacetin, 100 mM H2O2, pH 7.2, before step 2; for ΔWI / Whiteness Index 5 min / Whiteness Index 15 min / Whiteness Index 30 min / Whiteness Index 45 min / Whiteness Index 60 min: two-step; for ΔWI: 0 to 60 min; for Whiteness Index 5 min: 5 min in triacetin/H2O2; for Whiteness Index 15 min: 15 min in triacetin/H2O2; for Whiteness Index 30 min: 30 min in triacetin/H2O2; for Whiteness Index 45 min: 45 min in triacetin/H2O2; for Whiteness Index 60 min: 60 min in triacetin/H2O2
Experimental: Bovine enamel incisors were prepared as indicated in Example 1. The stained enamel blocks were embedded in a 48 well plate to protect the dentin backside from solution exposure. A solution of 10 μM of each enzyme in 10 mM phosphate buffer, pH 7.2 was prepared and 500 μL of solution was incubated with each enamel substrate for 60 min. The enzyme solution was removed and each well was rinsed three times with an additional 500 μL of buffer. The enamel blocks were placed in a fresh well for the whitening process. A solution with a final concentration of 40 mM triacetin, 100 mM H2O2 in 50 mM phosphate pH 7.2 buffer was freshly prepared and 500 μL of solution was added to each enamel block. Over the course of 1 hr the enamel blocks were removed and a color measurement was obtained and then each was returned to the solution in the well plate. The whiteness index for each sample was monitored.

[3] = Retention of perhydrolase on hydroxyapatite (SDS-PAGE band strength); format: binding; conditions: relative to enzyme input = 1; for Unbound (relative band strength): 10 μM enzyme, 0.5% hydroxyapatite, pH 7.2; for HAP Particles (relative band strength): enzyme retained on particles after washes
Experimental: Perhydrolase enzymes listed in Table 6 were assessed for binding to hydroxyapatite. A dispersion of hydroxyapatite nanoparticles (Aldrich 677418) was made at 0.5% solids in 10 mM phosphate buffer at pH 7.2. Enzyme stock solution was added to the hydroxyapatite dispersion to a final concentration of 10 μM and incubated for 30 min in a microcentrifuge tube with gentle agitation. Each sample was centrifuged for 5 min at 10000 rpm. The supernatant was removed and additional buffer was added. The particles were resuspended and transferred to a new tube. The process was repeated two additional times. Samples of the original input of enzyme, the supernatant removed from the particles with each wash step and the final particles were prepared for SDS-PAGE analysis by combining 60 μL of sample, 20 μL of LDS buffer and 8 μL of reducing agent (Nu-PAGE). Samples were heated at 85° C. for 10 min. 25 μL of each sample was loaded on a 4-12% BisTris gel (Invitrogen) and run at 115 volts for 1.5 h. The gel was removed and stained with a 1:1 dilution of Simply Blue stain (Invitrogen) overnight and destained for 4 h in deionized water. The gel was analyzed and detection of enzyme in each fraction was estimated based on the presence of a band. The results of the analysis are provided in Table 7 with an indication of the relative strength of each band in the gel compared to the enzyme input (input=1) to determine the strength of binding between the hydroxyapatite surface and each enzyme.

[4] = T. maritima C277S/C277T constructs, peracetic acid in solution (Example 11); format: biochemical; conditions: 0.5 μM enzyme, 100 mM triacetin, 100 mM H2O2, pH 7.2, 10 min, 37° C.; no enzyme 114
Experimental: as §1
Perhydrolase enzymes listed in Table 5 were assessed for enzyme activity in solution as described in Example 7. The enzyme activity in solution was measured by making a 500 μl solution of 0.5 μM of each enzyme in 100 mM triacetin, 100 mM H2O2 and 10 mM phosphate buffer, pH 7.2. The solution was incubated for 10 min, at 37° C. After the reaction was stopped by mixing an aliquot with H3PO4, a 10 μL aliquot was removed for proper dilution, and then detected via ABTS oxidation as described in Example 7.

[5] = Perhydrolase activity in solution, ABTS detection of peracetic acid (Example 7); format: biochemical; conditions: 10 μL of 0.625 μg/mL enzyme, triacetin, H2O2, pH 7.2, 5 min
Experimental: as §1
The enzyme activity in solution was measured by making a solution of 0.625 μg/mL of each enzyme in 50 mM phosphate buffer, pH 7.2. 10 μL of enzyme solution was mixed with 90 μL buffer, 30 μL of 3% triacetin in water, 30 μL of 30 mM H2O2. The solution was incubated for 5 min. A 90 μL aliquot was removed for detection via ABTS oxidation as noted above.

[6] = Peracetic acid generation from hydroxyapatite bound CE-7 perhydrolase fusions (Example 8); format: biochemical; conditions: hydroxyapatite particles exposed to 10 μM enzyme, washed; 100 mM triacetin, 100 mM H2O2, 30 min, 37° C.; no enzyme 30-118.8
Experimental: as §1
To assess binding of these constructs to hydroxyapatite, 33 mg of hydroxyapatite particles (Macro-prep Ceramic Hydroxyapatite TYPE I, 80 μm size BioRad, Hercules, Calif.), were washed with 10 mM phosphate buffer at pH 7.2. After removing the supernatant, enzyme stock solution was added to the hydroxyapatite dispersion to a final concentration of 10 μM and incubated for 30 min in a microcentrifuge tube with gentle agitation. Each sample was centrifuged for 1 min at 10000 rpm. The supernatant was removed and additional buffer was added. The particles were resuspended and transferred to a new tube. The process was repeated two additional times. The hydroxyapatite bound enzyme activity was measured by adding a 500 μl solution containing 100 mM triacetin, 100 mM H2O2 in 100 mM phosphate buffer, pH 7.2. The solution was incubated for 30 min, at 37° C. An aliquot was removed and mixed with H3PO4 and properly diluted for detection via ABTS oxidation as described in Example 7. The experiments were performed at different day with no enzyme as control for each experiment.

[7] = Perhydrolase activity of enzyme bound to hydroxyapatite discs, ABTS (Example 7); format: biochemical
Experimental: as §1
The perhydrolase activity of the fusions once bound to HAP discs surfaces was determined with the same ABTS method. Hydroxyapatite discs (HiMed Inc, Old Bethpage, N.Y.; 5 mm dia.×1.8 mm thick) were incubated in 20 μM enzyme solution (50 mM potassium phosphate buffer pH 7.2) for 60 min followed by 6 times of washes (50 mM potassium phosphate buffer pH 7.2). The discs with enzyme adsorbed were transferred to new wells and 200 μL of phosphate buffer (10 mM pH 7.2), 30 μL of 3% triacetin (final concentration of 0.346%) and 30 μL of 30 mM H2O2 (final concentration of 3.46 mM) were added. The solution was allowed to incubate at room temperature for 5 min. 90 μL of solution was pipetted to a new well containing 10 μL of 100 mM H3PO4. 50 μL of acetic acid, 50 μL KI, 50 μL ABTS were added as described above. The solution was developed for 5 min at room temperature and read at A405 nm.

B1: EZ-3: C277S-link2-H6, SEQ ID NO: 426 (protein)
chain: MAFFDLPLEELKKYRPERYEEKDFDEFWEETLAESEKFPLDPVFERMESHLKTVEAYDVTFSGYRGQRIKGWLLVPKLEEEKLPCVVQYIGYNGGRGFPHDWLFWPSMGYICFVMDTRGQGSGWLKGDTPDYPEGPVDPQYPGFMTRGILDPRTYYYRRVFTDAVRAVEAAASFPQVDQERIVIAGGSQGGGIALAVSALSKKAKALLCDVPFLCHFRRAVQLVDTHPYAEITNFLKTHRDKEEIVFRTLSYFDGVNFAARAKIPALFSVGLMDNISPPSTVFAAYNYYAGPKEIRIYPYNNHEGGGSFQAVEQVKFLKKLFEKGGSHHHHHH
Peracetic acid (ppm) On Enamel [1]: 733 ppm
Whiteness Index 0 min [2]: −159.0
ΔWI [2]: 75.2
Whiteness Index 5 min [2]: −147.4
Whiteness Index 15 min [2]: −161.5
Whiteness Index 30 min [2]: −117.3
Whiteness Index 45 min [2]: −104.7
Whiteness Index 60 min [2]: −83.8
Unbound (relative band strength) [3]: 0.8
HAP Particles (relative band strength) [3]: 0.1
Wash1 (relative band strength) [3]: 0.05
Wash2 (relative band strength) [3]: 0.05
Peracetic acid (ppm) In Solution [4]: 5187 ppm
Avg Absorbance 405 nm Background subtracted [5]: 1.751

B2: EZ-2: C277S-link1-HC263-H6 fusion protein, SEQ ID NO: 425 (protein)
chain: MAFFDLPLEELKKYRPERYEEKDFDEFWEETLAESEKFPLDPVFERMESHLKTVEAYDVTFSGYRGQRIKGWLLVPKLEEEKLPCVVQYIGYNGGRGFPHDWLFWPSMGYICFVMDTRGQGSGWLKGDTPDYPEGPVDPQYPGFMTRGILDPRTYYYRRVFTDAVRAVEAAASFPQVDQERIVIAGGSQGGGIALAVSALSKKAKALLCDVPFLCHFRRAVQLVDTHPYAEITNFLKTHRDKEEIVFRTLSYFDGVNFAARAKIPALFSVGLMDNISPPSTVFAAYNYYAGPKEIRIYPYNNHEGGGSFQAVEQVKFLKKLFEKGGPGSGGAGSPGSAGGPGSPSAQSQLPDKHSGLHERAPQRYGPEPEPEPEPIPEPPKEAPVVIEKPKPKPKPKPKPPAHDHKNQKETHQRHAAGSGGGGSPHHHHHH
Peracetic acid (ppm) On Enamel [1]: 2549 ppm
Peracetic acid (ppm) [6]: 3666.4 ppm
Whiteness Index 0 min [2]: −154.5
ΔWI [2]: 129.1
Whiteness Index 5 min [2]: −134.6
Whiteness Index 15 min [2]: −97.3
Whiteness Index 30 min [2]: −57.2
Whiteness Index 45 min [2]: −35.8
Whiteness Index 60 min [2]: −25.3
Unbound (relative band strength) [3]: 0.5
HAP Particles (relative band strength) [3]: 0.5
Wash1 (relative band strength) [3]: 0.0
Wash2 (relative band strength) [3]: 0.0
Peracetic acid (ppm) In Solution [4]: 4761 ppm
Avg Absorbance 405 nm Background subtracted [5]: 1.577

B3: EZ-5: C277S-link1-(GK)5-H6, SEQ ID NO: 428 (protein)
chain: MAFFDLPLEELKKYRPERYEEKDFDEFWEETLAESEKFPLDPVFERMESHLKTVEAYDVTFSGYRGQRIKGWLLVPKLEEEKLPCVVQYIGYNGGRGFPHDWLFWPSMGYICFVMDTRGQGSGWLKGDTPDYPEGPVDPQYPGFMTRGILDPRTYYYRRVFTDAVRAVEAAASFPQVDQERIVIAGGSQGGGIALAVSALSKKAKALLCDVPFLCHFRRAVQLVDTHPYAEITNFLKTHRDKEEIVFRTLSYFDGVNFAARAKIPALFSVGLMDNISPPSTVFAAYNYYAGPKEIRIYPYNNHEGGGSFQAVEQVKFLKKLFEKGGPGSGGAGSPGSAGGPGSGKGKGKGKGKHHHHHH
Peracetic acid (ppm) On Enamel [1]: 1344 ppm
Whiteness Index 0 min [2]: −135.8
ΔWI [2]: 93.2
Whiteness Index 5 min [2]: −129.8
Whiteness Index 15 min [2]: −97.4
Whiteness Index 30 min [2]: −65.1
Whiteness Index 45 min [2]: −49.9
Whiteness Index 60 min [2]: −42.7
Unbound (relative band strength) [3]: 0.2
HAP Particles (relative band strength) [3]: 0.7
Wash1 (relative band strength) [3]: 0.05
Wash2 (relative band strength) [3]: 0.05
Avg Absorbance Background subtract ([7]; background = no enzyme, no HAP (0.775)): 1.379
Avg Absorbance at 5 min ([7]; discs incubated in 20 μM enzyme, 6 washes, 0.346% triacetin, 3.46 mM H2O2, A405): 2.154
PAA conc μM per disc ([7]; enzyme bound to hydroxyapatite disc, 5 min, no enzyme control 1.2): 49.7 μM per disc
activity when bound to hydroxyapatite (in words) ([7]; with addition of triacetin and hydrogen peroxide): active enzymes when bound to hydroxyapatite
Peracetic acid (ppm) In Solution [4]: 3956 ppm
Avg Absorbance 405 nm Background subtracted [5]: 1.658
